Measured values: patent publication US9956304 (GEORGIA STATE UNIVERSITY RESEARCH FOUNDATION, dated 2018)
Where a chain is given by its changes, count along the chain named.

Tests used:
[1] = target: T1, gastrin-releasing peptide receptor (GRPR) (UniProt P30550 1-384, limits assumed); assay: Scatchard plot experiments, GRPR on cancer cell lines
T1 construct: whole, on cells; Endogenous receptor on PC3 and H441 cells, xenograft tumors or PC3 cell lysate; the cell lines are human; also called GRP receptor

[2] = target: T1, gastrin-releasing peptide receptor …; assay: Scatchard plot from absorbance-based assay on wells of PC3 cell lysate; Kd of this variant not given

T1 sequence (P30550 whole entry): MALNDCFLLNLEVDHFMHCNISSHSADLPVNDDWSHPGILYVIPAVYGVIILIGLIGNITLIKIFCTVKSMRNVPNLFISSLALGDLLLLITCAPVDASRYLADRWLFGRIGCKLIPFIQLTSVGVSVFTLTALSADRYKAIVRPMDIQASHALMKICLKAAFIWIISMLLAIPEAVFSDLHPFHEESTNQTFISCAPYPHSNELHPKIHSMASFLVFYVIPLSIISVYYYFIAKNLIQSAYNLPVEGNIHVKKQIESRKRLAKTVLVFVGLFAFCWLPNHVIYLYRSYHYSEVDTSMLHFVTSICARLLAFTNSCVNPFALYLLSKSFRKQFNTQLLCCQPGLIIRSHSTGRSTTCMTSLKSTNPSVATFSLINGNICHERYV

B1: ProCA1.B10 (designed binder)
chain: RDSGTVWGALGHGIELNIPNFQMTDDIDEVRWERGSTLVAEFKRKMKPFLKSGGSGGGNQWAVGHLMGGSGGAFEIDANGDLDIKNLTRDDSGTYNVTVYSTNGTRILNKALDLRILE
binding result [1]: binds

B2: ProCA1.G10 (designed binder)
chain: B1 chain with Q60H
binding result [2]: binds
